The results in this text go back to patent US20220119517A1 (NANJING SANHOME PHARMACEUTICAL, published 2022).

Changes are numbered by the printed parent chain.

The target of test [1] is T1, human Claudin18.2 (CLDN18.2), full length, on cells (human).
T1 construct: also called CLDN18.2-FL; HEK293-CLDN18.2 cells
As to the kind of experiment: cellular ELISA on fixed HEK293-CLDN18.2 cells. The protocol:
(§1) HEK293-CLDN18.1 and HEK293-CLDN18.2 cells were resuscitated two weeks in advance, cultured with DMEM complete culture medium containing 10% fetal bovine serum at 37° C., 5% CO₂. When the cells grew to 80%-90% confluency, they were digested with 0.5 mM EDTA-PBS (Sigma) at room temperature, centrifuged at 1000 rpm for 5 minutes, the supernatant was discarded. Cells were resuspended in DMEM complete culture medium, the cell concentration was adjusted to 6×10⁵ cells/ml. Cells were plated on 96-well cell plates (Corning) pre-coated with polylysine at 2.5 μg/well, 100 μl per well, incubated at 37° C., 5% CO₂ for 24 hours, making cells evenly and completely plated on the bottom of the well. The supernatant was aspirated, and the cells were fixed with 4% paraformaldehyde at room temperature for 20 minutes, washed 3 times with 200 μl PBS, 2 minutes at each time. The well plates were blocked with 200 μl of 3% BSA-PBS at 37° C. for 1 hour. Each chimeric antibody was diluted with 3% BSA-PBS to a concentration of 6 μg/ml, and diluted in a 6-fold gradient to a total of 7 concentrations. At the same time, IMAB362-similar-hG1 diluted in the same concentration gradient as the positive control, and human IgG1, kappa isotype control antibody (hereinafter referred to as Isotype, provided by CrownBio (Taicang) Co., Ltd.) as the negative control were added to HEK293-CLDN18.2 and HEK293-CLDN18.1 cell plates, respectively. The cells were incubated at 37° C. for 1 hour, washed 5 times with PBS. Incubation with HRP-anti human IgG (Jackson) diluted 1:10000 in blocking solution was performed at 37° C. for 1 hour followed by washing 5 times with PBS. 100 μl of TMB one-component color developing solution was added, protected from light at room temperature for 5-10 minutes, terminated with 50 μl of 2M sulfuric acid, OD450 was read on the microplate reader. Data processing: the original data was put into GraphPad 5.0 software for plotting and calculation.

The target in test [2] is T2, human Claudin18.1 (CLDN18.1), full length, on cells (human, UniProt P56856 1-261).
T2 construct: HEK293-CLDN18.1 cells carry a fusion with green fluorescent protein (ZsGreen); CHO-K1-CLDN18.1 cells carry pcDNA3.1-CLDN18.1; The cell line is named under assay; also called CLDN18.1-FL; HEK293-CLDN18.1 cells
As to the kind of experiment: cellular ELISA on fixed HEK293-CLDN18.1 cells, HRP-anti human IgG, OD450. The method, then: as §1

Test [3] has as its target T3, antigen protein Claudin18.2-His (human, UniProt P56856-2 1-261, limits assumed).
T3 construct: also called CLDN18.2 protein
In words: BLI (Fortebio Octet RED96), antibody on AHC sensor, CLDN18.2 protein in solution, 37 °C. The method, then:
Another method is to verify the affinity of the humanized antibody above at the protein level. The antibody was immobilized by the AHC sensor, and combined with different concentrations of antigens, and affinity determination was performed according to the manual of Octet RED96.

Test [4] has as its target T1, human Claudin18.2 (CLDN18.2), full …. As to the kind of experiment: cell-based or functional assay.
For test [5] the target is unchanged. In words: FACS on CHO-K1-CLDN18.2 cells, Graphpad fit. The protocol:
(§2) CHO-K1-CLDN18.2 cells and CHO-K1-CLDN18.1 cells (prepared in Example 5) were digested with gastric cancer cell digestion solution at 37° C. for 15 minutes, respectively; terminated with complete culture medium, centrifuged at 1000 rpm for 5 minutes, the supernatant was discarded; the cells were resuspended with 2% fetal bovine serum-PBS diluent, the cells were adjusted to 1×10⁶ cells/ml, 100 μl of cell suspension was added to each well of the 96-well U-shaped-bottom plate; 2% fetal bovine serum-PBS was used to dilute the humanized antibody and the control antibody to final concentrations of 10 μg/ml, 2 μg/ml, 0.4 μg/ml, 0.08 μg/ml and 0.016 μg/ml, respectively, mixed well with the cells in equal volume, incubated at 4° C. for 1 hour; centrifuged at 1000 rpm for 5 minutes, the supernatant was discarded; 200 μl Cell Stain Buffer (Biolegend) was added to each well to wash twice, centrifuged at 1000 rpm for 5 minutes at each time and the supernatant was discarded; 100 μl of PE-anti human Fc antibody (Biolegend) was added, incubated at 4° C. for 1 hour; washed with Cell Stain Buffer (Biolegend) twice, centrifuged at 1000 rpm for 5 minutes at each time and the supernatant was discarded. 300 μl Cell Stain Buffer was added to resuspend the cells, and detected by BD FACS Jazz flow cytometry analyzer. […]

The target of test [6] is T2, human Claudin18.1 (CLDN18.1), full …. In words: FACS on CHO-K1-CLDN18.1 cells, PE-anti human Fc, MFI. The protocol:
(§3) CHO-K1-CLDN18.2 cells and CHO-K1-CLDN18.1 cells (prepared in Example 5) were digested with gastric cancer cell digestion solution at 37° C. for 15 minutes, respectively; terminated with complete culture medium, centrifuged at 1000 rpm for 5 minutes, the supernatant was discarded; the cells were resuspended with 2% fetal bovine serum-PBS diluent, the cells were adjusted to 1×10⁶ cells/ml, 100 μl of cell suspension was added to each well of the 96-well U-shaped-bottom plate; 2% fetal bovine serum-PBS was used to dilute the humanized antibody and the control antibody to final concentrations of 10 μg/ml, 2 μg/ml, 0.4 μg/ml, 0.08 μg/ml and 0.016 μg/ml, respectively, mixed well with the cells in equal volume, incubated at 4° C. for 1 hour; centrifuged at 1000 rpm for 5 minutes, the supernatant was discarded; 200 μl Cell Stain Buffer (Biolegend) was added to each well to wash twice, centrifuged at 1000 rpm for 5 minutes at each time and the supernatant was discarded; 100 μl of PE-anti human Fc antibody (Biolegend) was added, incubated at 4° C. for 1 hour; washed with Cell Stain Buffer (Biolegend) twice, centrifuged at 1000 rpm for 5 minutes at each time and the supernatant was discarded. 300 μl Cell Stain Buffer was added to resuspend the cells, and detected by BD FACS Jazz flow cytometry analyzer.

Test [7] concerns the target T1, human Claudin18.2 (CLDN18.2), full …. In words: FACS on NUGC4 cells. From the text: (§4) Human gastric cancer cells NUGC4 and stably transfected cells CHO-K1-CLDN18.1 (prepared in Example 5) were used respectively, to verify the specificity and affinity of the anti-CLDN18.2 antibodies above at the cellular level by FAGS technology. After antibody affinity maturation and screening in vitro, each antibody can bind to the CLDN18.2 target on NUGC4 cells, but not to CHO-K1-CLDN18.1 cells, as compared with the original 3CHI antibody.

The target is the same in test [8]. In words: cell-based or functional assay. This is another data set of the same source.
Test [9] addresses T2, human Claudin18.1 (CLDN18.1), full …. As to the kind of experiment: FACS on CHO-K1-CLDN18.1 cells.
Text: as §4

The target in test [10] is T3, antigen protein Claudin18.2-His. In words: BLI (Fortebio Octet RED96), antibody on AHC sensor, Claudin18.2-His in solution, 37 °C. The method, then: Next, antibodies were immobilized by the AHC sensor, and then combined with different concentrations of antigens, and determination of the affinity was performed according to the manual of Octet RED96.
The target of test [11] is T1, human Claudin18.2 (CLDN18.2), full …. As to the kind of experiment: FACS on CHO-K1-CLDN18.2 cells, relative Kd from Graphpad fit. The method, then:
as §2

The target is the same in test [12]. In words: FACS on CHO-K1-CLDN18.2 cells, PE-anti human Fc, MFI. The method, then: as §3

B1: 18CHI (antibody, V domains shown)
VH: QVQLKESGPGLVAPSQSLSITCTVSGFSLTSYGVSWVRQPPGKGLEWLGVIWGDGSTNYHSALISRLSISKDNSKSQVFLKLNSLQTDDTATYYCAGGLRLWFAYWGQGTLVTVSA
VL: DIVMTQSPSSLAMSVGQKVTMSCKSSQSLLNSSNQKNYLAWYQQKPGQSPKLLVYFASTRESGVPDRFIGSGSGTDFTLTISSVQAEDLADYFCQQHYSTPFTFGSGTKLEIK
notes: Human-murine chimeric antibody with the constant region of human IgG1; also called chimeric antibody of C40B10D9
Molecule B1 came in with an EC50 in test [1] of 1.75 nM. Besides, the binding result in [2] is listed as “no binding (tested: 6000 ng/ml)”.

B2: 330CHI (antibody, human IgG1, V domains shown)
VH: EVKLVESGGGLVQPGGSLKLSCAASGFGFSDYGMAWVRQAPRKGPEWVAFISNSAYSIYYADTVTGRFTISRENAKNTLYLEMSSLRSEDTAMYYCARLGRGNSFAYWGQGTLVTVSA
VL: DIVMTQSPSSLTVTAGEKVTMSCKSSQSLLNSGNQKNYLTWYQQKPGQPPKLLIYWGSTRESGVPDRFTGSGSGTDFTLTISSVQAEDLAVYYCQNELFYPLTFGAGTKLELK
notes: chimeric with the constant region of human IgG1; also called chimeric antibody 330CHI
In test [3], B2 showed a Kd of 0.249 nM, a koff of 3.23e-05 s⁻¹ and a kon of 130000 M⁻¹ s⁻¹. Moreover, in test [4], the “in-vitro ADCC activity, Jurkat-CD16A/NF luciferase reporter, EC50” value was 0.22 nM and the “in-vitro ADCC activity, Jurkat-CD16A/NF luciferase reporter, Top” value is 215000. Besides, the “Bmax (MFI)” value in test [5] worked out at 10800 MFI. Besides, the binding result in test [6] is listed as “no binding”. Also, the “MFI (CLDN18.2)” value in test [7] is 63700 MFI. Also, in [8], the “ADCC activity by luciferase labeling, EC50” value worked out at 0.18 nM and the “ADCC activity by luciferase labeling, Top” value was determined as 64500. For the same molecule, in test [9], the “MFI (CLDN18.1)” value is 49 MFI. In test [10], this molecule had a Kd of 0.84 nM, a koff of 0.000117 s⁻¹ and a kon of 139000 M⁻¹ s⁻¹. The same molecule showed a Kd in [11] of 1.6 nM.

B3: 17CHI (antibody, V domains shown)
VH: EVQLQQSGPELVKPGASVKMSCKASGYTFTDYNMHWVKQSHGKSLEWIGYINPNNGGTSYNQKFKGKATLTVNKSSSTAYMELRSLTSEDSAVYYCARIYYGNSFAYWGQGTLVTVSA
VL: B2 VL with G57A, E97D, L98Y, F99S, L102F, A106S, L112I
notes: Human-murine chimeric antibody with the constant region of human IgG1; also called chimeric antibody of C58B11E11
B3 had an EC50 in test [1] of 2.44 nM. Moreover, the “MFI (CLDN18.1)” value in test [9] turned out to be 14500 MFI.

B4: 3CHI (antibody, V domains shown)
VH: B2 VH with G28T, S54L, R101Y
VL: B2 VL with G57A, E97D, L98Y, F99S
notes: Human-murine chimeric antibody with the constant region of human IgG1; also called chimeric antibody of S5H3B6; original 3CHI antibody
As for B4, in test [4], the “in-vitro ADCC activity, Jurkat-CD16A/NF luciferase reporter, EC50” value was 0.54 nM and the “in-vitro ADCC activity, Jurkat-CD16A/NF luciferase reporter, Top” value was 212000. In addition, in test [1], the response was half-maximal at 0.08 nM (EC50). In test [7], the “MFI (CLDN18.2)” value came out at 2510 MFI. Also, in test [9], the “MFI (CLDN18.1)” value is 76 MFI. The binding result in [2] is recorded as “no binding (tested: 6000 ng/ml)”.

B5: Hu330-3 (antibody, V domains shown)
VH: EVQLLESGGGLVQPGGSLRLSCAASGFGFSDYGMAWVRQAPGKGLEWVSFISNSAYSIYYADTVTGRFTISRDNSKNTLYLQMNSLRAEDTAVYYCARLGRGNSFAYWGQGTLVTVSS
VL: DIVMTQSPDSLAVSLGERATINCKSSQSLLNSGNQKNYLTWYQQKPGQPPKLLIYWGSTRESGVPDRFSGSGSGTDFTLTISSLQAEDVAVYYCQNELFYPLTFGQGTKLEIK
notes: Humanized full antibody; also called humanized antibody Hu330-3
In the case of B5, the binding result is on record as “binds” in test [12] and “no binding” in [6].

B6: Hu330-5 (antibody, V domains shown)
VH: B5 VH with L5V, S75A, T78S
VL: DIVMTQSPLSLPVTLGQPASISCKSSQSLLNSGNQKNYLTWYQQRPGQSPRLLIYWGSTRESGVPDRFSGSGSGTDFTLKISRVEAEDVGVYYCQNELFYPLTFGQGTKLEIK
notes: Humanized full antibody; also called humanized antibody Hu330-5
Regarding B6, in test [12], the “EC50 (read off the curve)” value was approximately 0.2 µg/mL. Besides, the binding result in test [6] is “no binding”.

B7: Hu330-6 (antibody, V domains shown)
VH: B5 VH
VL: B6 VL
notes: Humanized full antibody; also called humanized antibody Hu330-6
Regarding B7, the “EC50 (read off the curve)” value in test [12] was approximately 0.2 µg/mL. Moreover, in [6], the binding result is on record as “no binding”.

B8: 1CHI (antibody, V domains shown)
VH: QIQLVQSGPELKKPGETVKISCKASGYTFTNYGMNWVKQAPGKGLKWMGWINTYTGEPTYADDFKGRFAFSLETSASTAYLQINNLKNEDMATYFCARDGQLGLRFAYWGQGTLVTVSA
VL: NIMMTQSPSSLAVSAGEKVTMSCKSSQSVLYSSNQKNYLAWYQQKPGQSPKLLIYWASTRESGVPDRFTGSGSGTDFTLTISSVQAEDLAVYYCHQYLSSRTFGGGTKLEIK
notes: Human-murine chimeric antibody with the constant region of human IgG1; also called chimeric antibody of B4B10G3
Turning to B8, the EC50 in test [1] came to 0.55 nM. In addition, the binding result in test [2] is listed as “no binding (tested: 6000 ng/ml)”.
